In experiment [1] the test system is patients with hereditary angioedema (HAE). The following applies: human, in vivo; cited from earlier work.
For experiment [2], the system named is rat models of arthritis. The following applies: cited from earlier work.
Experiment [3] deals with human plasma kallikrein (Homo sapiens, UniProt P03952). The experiment is described as follows: in vitro biochemical assay measuring inhibition of human plasma kallikrein activity. The following applies: protocols and results in WO 2015/134998 and US 2017/0073314 A1. How it is done:
Compound I was assayed in an in vitro biochemical assay measuring inhibition of human plasma kallikrein activity. Experimental protocols and results of the assays are found in WO 2015/134998 and U.S. Patent Application Publication No. 2017/0073314 A1 (both incorporated by reference).

The test system of experiment [4] is sepsis patients. The following applies: cited from earlier work.
Experiment [5] has as its system mouse model of middle cerebral artery occlusion (MCAO). The following applies: cited from earlier work.
Experiment [6] concerns lipopolysaccharide (LPS)- or bacterial-induced sepsis in animals. The following applies: cited from earlier work.

human plasma kallikrein, sequence (P03952 391-638 limits assumed): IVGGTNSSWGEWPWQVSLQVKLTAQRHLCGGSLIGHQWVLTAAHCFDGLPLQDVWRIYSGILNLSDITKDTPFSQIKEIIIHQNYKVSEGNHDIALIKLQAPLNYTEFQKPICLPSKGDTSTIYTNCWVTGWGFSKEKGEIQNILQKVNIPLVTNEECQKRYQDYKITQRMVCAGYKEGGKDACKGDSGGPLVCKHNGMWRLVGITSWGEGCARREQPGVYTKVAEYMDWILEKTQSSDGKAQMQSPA
human plasma kallikrein, sequence (P03952 20-390 partner limits assumed): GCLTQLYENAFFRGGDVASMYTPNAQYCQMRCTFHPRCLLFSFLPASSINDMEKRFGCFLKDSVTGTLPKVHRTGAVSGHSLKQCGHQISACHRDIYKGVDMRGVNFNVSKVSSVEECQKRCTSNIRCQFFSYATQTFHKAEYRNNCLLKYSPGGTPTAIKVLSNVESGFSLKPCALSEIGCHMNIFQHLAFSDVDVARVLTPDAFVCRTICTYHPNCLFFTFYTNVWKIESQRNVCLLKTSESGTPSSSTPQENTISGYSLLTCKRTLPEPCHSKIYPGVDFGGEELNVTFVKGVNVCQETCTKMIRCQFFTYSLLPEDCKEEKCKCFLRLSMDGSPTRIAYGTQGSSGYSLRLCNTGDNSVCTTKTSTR

Consider `NC(N)=NCCC[C@@H](N)C(=O)N[C@@H](CCCN=C(N)N)C(=O)N1CCC[C@H]1C(=O)N1C[C@H](O)C[C@H]1C(=O)NCC(=O)N[C@@H](Cc1cccs1)C(=O)N[C@@H](CO)C(=O)N1Cc2ccccc2C[C@@H]1C(=O)N1[C@H](C(=O)N[C@@H](CCCN=C(N)N)C(=O)O)C[C@@H]2CCCC[C@@H]21` [Icatibant], for which the “treating HAE” value in experiment [1] is on record as “effective”.
Consider `Cl.NCC1CCC(C(=O)N[C@@H](Cc2ccccc2)C(=O)Nc2ccc(CC(=O)O)cc2)CC1` (stereo partly shown) [PKSI-527], for which the joint swelling entry in experiment [2] was “reduce”.
`N#Cc1cccc([C@@H](NCC2CC2)c2ccc(F)c(NC(=O)c3cc(C(F)(F)F)nn3-c3cccc(CN)c3)c2)c1` [Compound I]: the “inhibition of human plasma kallikrein activity” value in experiment [3] is listed as “potent inhibitor”.

B1: C1-inhibitor: physiological inhibitor of kallikrein in human plasma (protein, UniProt P05155 23-500, looked up)
Plasma protease C1 inhibitor: NPNATSSSSQDPESLQDRGEGKVATTVISKMLFVEPILEVSSLPTTNSTTNSATKITANTTDEPTTQPTTEPTTQPTIQPTQPTTQLPTDSPTQPTTGSFCPGPVTLCSDLESHSTEAVLGDALVDFSLKLYHAFSAMKKVETNMAFSPFSIASLLTQVLLGAGENTKTNLESILSYPKDFTCVHQALKGFTTKGVTSVSQIFHSPDLAIRDTFVNASRTLYSSSPRVLSNNSDANLELINTWVAKNTNNKISRLLDSLPSDTRLVLLNAIYLSAKWKTTFDPKKTRMEPFHFKNSVIKVPMMNSKKYPVAHFIDQTLKAKVGQLQLSHNLSLVILVPQNLKHRLEDMEQALSPSVFKAIMEKLEMSKFQPTLLTLPRIKVTTSQDMLSIMEKLEFFDFSYDLNLCGLTEDPDLQVSAMQHQTVLELTETGVEAAAASAISVARTLLVFEVQQPFLFVLWDQQHKFPVFMGRVYDPRA
Take B1: in experiment [4], the “clinical outcome in sepsis patients” value is “Clinical improvement”. Besides, the infarct size entry in experiment [5] is listed as “reduced”. In addition, in experiment [6], the lesions result is recorded as “reduce” and the “vascular permeability in multiple organs” value is “reduce”.

The values above are taken from patent publication US12503443B2, “Process-scale synthesis of a plasma kallikrein inhibitor” (BioCryst Pharmaceuticals, Inc., priority 2019, dated 2025).
